B1: UBE2F-can3'ss-32 (ssRNA)
RNA: UUUUUUUGUUUUGUUUUGUGUUUUUUGAUAGA
B2: UBE2F-cr3'ss-32 (ssRNA)
RNA: CUUUUUGUUUCCUUUUUUUUUUAAUUUAAAGG

What was measured:
U2AF65 E162K [1] = target: T1, U2AF65 E162K (human, UniProt P26368 1-475, E162K); experiment: EMSA; Kd only in figure; Hill 2.23; binding not apparently reduced; EMSA: 40 mM Tris pH 8.0, 5 mM MgCl2, 0.25 ug/uL heparin, 0.01% Triton, 1 mM DTT, room temperature 20 min; 6% native PAGE in 0.5x TBE at 4 C; 15-17 nM biotin-RNA; conditions: protein: recombinant; tags: N-terminal GST (pGEX6P); label: 5' biotin; single strand
PUF60 H169Y = PUF60 H169Y (human, UniProt Q9UHX1 1-559, H169Y); experiment: EMSA; higher affinity than cr probe; approximate Kd only in figure; Hill 2.4; EMSA: 40 mM Tris pH 8.0, 5 mM MgCl2, 0.25 ug/uL heparin, 0.01% Triton, 1 mM DTT, room temperature 20 min; 6% native PAGE in 0.5x TBE at 4 C; 15-17 nM biotin-RNA; conditions: protein: recombinant; tags: 2xHis-lipoyl-TEV, removed by TEV; label: 5' biotin; single strand
U2AF65 E162K [2] = target: T1, U2AF65 E162K; experiment: EMSA; Kd only in figure; Hill 1.84; binding not apparently reduced; EMSA: 40 mM Tris pH 8.0, 5 mM MgCl2, 0.25 ug/uL heparin, 0.01% Triton, 1 mM DTT, room temperature 20 min; 6% native PAGE in 0.5x TBE at 4 C; 15-17 nM biotin-RNA; conditions: protein: recombinant; tags: N-terminal GST (pGEX6P); label: 5' biotin; single strand

T1 sequence (P26368 whole entry E162K, one chain of several): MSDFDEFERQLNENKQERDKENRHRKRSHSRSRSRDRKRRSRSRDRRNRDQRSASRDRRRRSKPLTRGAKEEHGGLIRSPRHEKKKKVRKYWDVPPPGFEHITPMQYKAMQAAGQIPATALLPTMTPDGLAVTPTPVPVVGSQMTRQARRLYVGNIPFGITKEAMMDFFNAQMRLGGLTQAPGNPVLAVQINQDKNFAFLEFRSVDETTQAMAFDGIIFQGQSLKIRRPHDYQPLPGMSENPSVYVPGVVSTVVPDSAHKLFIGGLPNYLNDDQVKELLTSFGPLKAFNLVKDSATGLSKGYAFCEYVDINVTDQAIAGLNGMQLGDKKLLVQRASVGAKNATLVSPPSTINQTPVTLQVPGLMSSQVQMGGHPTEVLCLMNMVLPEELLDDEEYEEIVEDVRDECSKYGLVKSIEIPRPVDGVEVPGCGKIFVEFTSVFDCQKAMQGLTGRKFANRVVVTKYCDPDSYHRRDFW
PUF60 H169Y, sequence (Q9UHX1 whole entry H169Y): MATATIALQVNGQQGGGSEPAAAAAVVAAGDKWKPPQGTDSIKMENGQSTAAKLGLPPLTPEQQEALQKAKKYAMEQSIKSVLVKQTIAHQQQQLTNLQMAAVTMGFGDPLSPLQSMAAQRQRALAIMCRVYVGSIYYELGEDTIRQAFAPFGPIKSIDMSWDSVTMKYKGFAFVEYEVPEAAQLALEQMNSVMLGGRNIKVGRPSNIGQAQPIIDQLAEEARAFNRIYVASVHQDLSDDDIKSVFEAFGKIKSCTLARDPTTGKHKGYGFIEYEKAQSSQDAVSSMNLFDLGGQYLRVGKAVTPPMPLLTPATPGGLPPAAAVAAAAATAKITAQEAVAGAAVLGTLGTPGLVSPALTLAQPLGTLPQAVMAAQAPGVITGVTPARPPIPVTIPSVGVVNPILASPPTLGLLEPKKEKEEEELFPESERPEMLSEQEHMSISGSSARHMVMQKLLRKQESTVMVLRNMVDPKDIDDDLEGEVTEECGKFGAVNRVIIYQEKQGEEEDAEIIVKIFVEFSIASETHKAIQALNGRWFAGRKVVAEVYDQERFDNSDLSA

| Binder | binding result (U2AF65 E162K [1]) | binding result (PUF60 H169Y) | binding result (U2AF65 E162K [2]) |
| --- | --- | --- | --- |
| B1 | binds | binds |  |
| B2 |  |  | binds |

— PMC7408900, “Cancer-Associated Substitutions in RNA Recognition Motifs of PUF60 and U2AF65 Reveal Residues Required for Correct Folding and 3′ Splice-Site Selection”
